Results as given in patent US20140274782A1, “AFFINITY REAGENTS AND METHODS FOR DETECTION, PURIFICATION, AND PROTEOMIC ANALYSIS OF METHYLATED PROTEINS” (The Board of Trustees of the Leland Stanford Junior …, priority 2013, published 2014).
One block for each molecule: values may come before it.

Key:
[1] = molecular target: T1, G9a and GLP (Homo sapiens, UniProt Q96KQ7+Q9H9B1); experiment: Triple SILAC pull-down after UNC0638 treatment of 293T cells, DMSO/UNC0638 ratio of protein captured by 3×MBT; format: cell-based; parameters: endogenous in cells; host or cells: HEK 293T; details: all values in log base 2; for Relative to UNC0638 UNC Heavy / Relative to UNC0638 UNC Light: SILAC ratio DMSO relative to UNC0638, pull-down with 3xMBT; for Relative to UNC0638 UNC Heavy: UNC0638 in heavy SILAC media; for Relative to UNC0638 UNC Light: UNC0638 in light SILAC media; for Relative to UNC0638 Average: average of UNC Light and UNC Heavy experiments;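 on all read-outs here: mass spectrometry (Q-Exactive) SILAC quantitation, DMSO/UNC0638 ratio computed after subtracting 3×MBTD355N mutant pull-down background, only proteins with at least twofold 3×MBT over mutant signal considered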
T1 sequence (Q96KQ7 2-1210 limits assumed): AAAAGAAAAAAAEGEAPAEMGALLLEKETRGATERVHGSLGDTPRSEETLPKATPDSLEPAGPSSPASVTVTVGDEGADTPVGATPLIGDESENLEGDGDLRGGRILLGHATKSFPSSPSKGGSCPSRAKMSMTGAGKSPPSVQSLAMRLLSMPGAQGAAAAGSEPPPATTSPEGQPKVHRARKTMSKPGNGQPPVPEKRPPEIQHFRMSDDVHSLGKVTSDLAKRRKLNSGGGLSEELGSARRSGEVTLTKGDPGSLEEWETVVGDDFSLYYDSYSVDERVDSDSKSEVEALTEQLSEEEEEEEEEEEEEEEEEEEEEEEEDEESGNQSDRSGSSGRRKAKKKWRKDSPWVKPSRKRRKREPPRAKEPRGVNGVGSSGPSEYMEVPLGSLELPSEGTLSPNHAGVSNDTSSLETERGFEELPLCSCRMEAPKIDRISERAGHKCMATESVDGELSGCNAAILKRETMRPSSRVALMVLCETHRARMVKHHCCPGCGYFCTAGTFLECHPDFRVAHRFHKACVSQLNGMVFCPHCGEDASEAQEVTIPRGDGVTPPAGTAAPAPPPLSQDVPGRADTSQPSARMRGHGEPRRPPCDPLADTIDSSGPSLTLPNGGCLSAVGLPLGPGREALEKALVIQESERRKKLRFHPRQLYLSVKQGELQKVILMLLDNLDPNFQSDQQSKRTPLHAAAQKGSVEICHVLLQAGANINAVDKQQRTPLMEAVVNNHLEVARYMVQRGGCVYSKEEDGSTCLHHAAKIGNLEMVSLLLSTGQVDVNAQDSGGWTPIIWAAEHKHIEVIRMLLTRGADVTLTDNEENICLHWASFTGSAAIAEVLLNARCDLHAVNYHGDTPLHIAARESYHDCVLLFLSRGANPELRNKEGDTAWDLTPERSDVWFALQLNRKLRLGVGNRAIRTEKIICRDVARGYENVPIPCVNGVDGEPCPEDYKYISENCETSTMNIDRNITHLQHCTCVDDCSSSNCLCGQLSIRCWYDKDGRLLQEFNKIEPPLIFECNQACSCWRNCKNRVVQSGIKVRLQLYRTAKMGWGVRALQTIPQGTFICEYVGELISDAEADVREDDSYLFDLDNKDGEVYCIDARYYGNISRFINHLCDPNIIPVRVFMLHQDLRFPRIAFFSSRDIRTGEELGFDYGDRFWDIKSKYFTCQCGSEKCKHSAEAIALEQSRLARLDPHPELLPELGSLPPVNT
T1 sequence (Q9H9B1 2-1298 limits assumed): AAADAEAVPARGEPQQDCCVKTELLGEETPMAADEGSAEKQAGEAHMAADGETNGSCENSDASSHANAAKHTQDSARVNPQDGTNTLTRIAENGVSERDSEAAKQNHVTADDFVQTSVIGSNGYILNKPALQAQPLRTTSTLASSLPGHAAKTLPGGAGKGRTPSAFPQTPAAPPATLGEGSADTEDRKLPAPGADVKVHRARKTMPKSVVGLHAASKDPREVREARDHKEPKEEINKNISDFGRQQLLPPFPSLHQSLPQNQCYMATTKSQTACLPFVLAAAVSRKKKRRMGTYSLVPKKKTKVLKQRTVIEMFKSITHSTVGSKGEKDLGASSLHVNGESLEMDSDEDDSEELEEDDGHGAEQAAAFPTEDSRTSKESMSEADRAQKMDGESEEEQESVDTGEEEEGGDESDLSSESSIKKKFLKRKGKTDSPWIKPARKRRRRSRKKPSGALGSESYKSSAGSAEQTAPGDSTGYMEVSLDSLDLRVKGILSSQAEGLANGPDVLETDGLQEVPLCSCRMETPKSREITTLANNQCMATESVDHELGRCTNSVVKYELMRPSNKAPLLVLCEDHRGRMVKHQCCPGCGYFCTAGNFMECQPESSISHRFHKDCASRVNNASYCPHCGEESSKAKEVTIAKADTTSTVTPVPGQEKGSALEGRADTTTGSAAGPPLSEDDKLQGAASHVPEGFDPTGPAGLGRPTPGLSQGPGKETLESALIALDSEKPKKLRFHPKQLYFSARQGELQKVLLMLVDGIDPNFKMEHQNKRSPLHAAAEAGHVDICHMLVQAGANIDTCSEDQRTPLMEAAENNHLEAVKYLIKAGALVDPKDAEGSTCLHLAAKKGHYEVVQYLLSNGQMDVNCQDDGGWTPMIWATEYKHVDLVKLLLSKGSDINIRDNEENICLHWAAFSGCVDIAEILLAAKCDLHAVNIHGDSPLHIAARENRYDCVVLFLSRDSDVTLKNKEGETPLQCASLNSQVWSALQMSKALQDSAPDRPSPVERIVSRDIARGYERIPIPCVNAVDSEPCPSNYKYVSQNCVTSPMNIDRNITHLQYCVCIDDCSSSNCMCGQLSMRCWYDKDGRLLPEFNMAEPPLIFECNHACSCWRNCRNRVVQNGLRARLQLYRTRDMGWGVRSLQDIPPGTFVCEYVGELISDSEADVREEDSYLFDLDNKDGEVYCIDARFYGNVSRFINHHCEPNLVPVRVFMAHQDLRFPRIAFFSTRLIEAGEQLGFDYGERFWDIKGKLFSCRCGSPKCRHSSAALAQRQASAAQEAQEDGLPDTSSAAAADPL

[2] = test system: 3×MBT domain of L3MBTL1; experiment: Triple SILAC pull-down, 3xMBT/3xMBTD355N ratio (cytoplasmic, nuclear and chromatin fractions of 293T cells); format: binding, human; details: SILAC ratio 3xMBT vs 3xMBTD355N pull-down, 293T cells, all values in log base 2; for 3xMBT/D355N UNC Heavy: experiment with UNC0638 in heavy SILAC media; for 3xMBT/D355N UNC Light: experiment with UNC0638 in light SILAC media;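 on all read-outs here: proteins quantified with MaxQuant, requiring at least two unique peptides and quantification in both label directions, normalized to the mean of proteins from a digested loading control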

Relative to UNC0638 UNC Heavy [1]: 0.13 log base 2 | Relative to UNC0638 UNC Light [1]: 0.03 log base 2 | Relative to UNC0638 Average [1]: 0.08 log base 2
B1: MAP4 (protein, UniProt P27816 2-1152, looked up)
Microtubule-associated …: ADLSLADALTEPSPDIEGEIKRDFIATLEAEAFDDVVGETVGKTDYIPLLDVDEKTGNSESKKKPCSETSQIEDTPSSKPTLLANGGHGVEGSDTTGSPTEFLEEKMAYQEYPNSQNWPEDTNFCFQPEQVVDPIQTDPFKMYHDDDLADLVFPSSATADTSIFAGQNDPLKDSYGMSPCNTAVVPQGWSVEALNSPHSESFVSPEAVAEPPQPTAVPLELAKEIEMASEERPPAQALEIMMGLKTTDMAPSKETEMALAKDMALATKTEVALAKDMESPTKLDVTLAKDMQPSMESDMALVKDMELPTEKEVALVKDVRWPTETDVSSAKNVVLPTETEVAPAKDVTLLKETERASPIKMDLAPSKDMGPPKENKKETERASPIKMDLAPSKDMGPPKENKIVPAKDLVLLSEIEVAQANDIISSTEISSAEKVALSSETEVALARDMTLPPETNVILTKDKALPLEAEVAPVKDMAQLPETEIAPAKDVAPSTVKEVGLLKDMSPLSETEMALGKDVTPPPETEVVLIKNVCLPPEMEVALTEDQVPALKTEAPLAKDGVLTLANNVTPAKDVPPLSETEATPVPIKDMEIAQTQKGISEDSHLESLQDVGQSAAPTFMISPETVTGTGKKCSLPAEEDSVLEKLGERKPCNSQPSELSSETSGIARPEEGRPVVSGTGNDITTPPNKELPPSPEKKTKPLATTQPAKTSTSKAKTQPTSLPKQPAPTTIGGLNKKPMSLASGLVPAAPPKRPAVASARPSILPSKDVKPKPIADAKAPEKRASPSKPASAPASRSGSKSTQTVAKTTTAAAVASTGPSSRSPSTLLPKKPTAIKTEGKPAEVKKMTAKSVPADLSRPKSTSTSSMKKTTTLSGTAPAAGVVPSRVKATPMPSRPSTTPFIDKKPTSAKPSSTTPRLSRLATNTSAPDLKNVRSKVGSTENIKHQPGGGRAKVEKKTEAAATTRKPESNAVTKTAGPIASAQKQPAGKVQIVSKKVSYSHIQSKCGSKDNIKHVPGGGNVQIQNKKVDISKVSSKCGSKANIKHKPGGGDVKIESQKLNFKEKAQAKVGSLDNVGHLPAGGAVKTEGGGSEAPLCPGPPAGEEPAISEAAPEAGAPTSASGLNGHPTLSGGGDQREAQTLDSQIQETSI
3xMBT/D355N UNC Heavy [2]: 1.41 log base 2 | 3xMBT/D355N UNC Light [2]: 2.75 log base 2

Relative to UNC0638 UNC Heavy [1]: 0.22 log base 2 | Relative to UNC0638 UNC Light [1]: −0.06 log base 2 | Relative to UNC0638 Average [1]: 0.08 log base 2
B2: UBAP2L (protein, UniProt Q14157 1-1087, looked up)
Ubiquitin-associated protein …: MMTSVGTNRARGNWEQPQNQNQTQHKQRPQATAEQIRLAQMISDHNDADFEEKVKQLIDITGKNQDECVIALHDCNGDVNRAINVLLEGNPDTHSWEMVGKKKGVSGQKDGGQTESNEEGKENRDRDRDYSRRRGGPPRRGRGASRGREFRGQENGLDGTKSGGPSGRGTERGRRGRGRGRGGSGRRGGRFSAQGMGTFNPADYAEPANTDDNYGNSSGNTWNNTGHFEPDDGTSAWRTATEEWGTEDWNEDLSETKIFTASNVSSVPLPAENVTITAGQRIDLAVLLGKTPSTMENDSSNLDPSQAPSLAQPLVFSNSKQTAISQPASGNTFSHHSMVSMLGKGFGDVGEAKGGSTTGSQFLEQFKTAQALAQLAAQHSQSGSTTTSSWDMGSTTQSPSLVQYDLKNPSDSAVHSPFTKRQAFTPSSTMMEVFLQEKSPAVATSTAAPPPPSSPLPSKSTSAPQMSPGSSDNQSSSPQPAQQKLKQQKKKASLTSKIPALAVEMPGSADISGLNLQFGALQFGSEPVLSDYESTPTTSASSSQAPSSLYTSTASESSSTISSNQSQESGYQSGPIQSTTYTSQNNAQGPLYEQRSTQTRRYPSSISSSPQKDLTQAKNGFSSVQATQLQTTQSVEGATGSAVKSDSPSTSSIPPLNETVSAASLLTTTNQHSSSLGGLSHSEEIPNTTTTQHSSTLSTQQNTLSSSTSSGRTSTSTLLHTSVESEANLHSSSSTFSTTSSTVSAPPPVVSVSSSLNSGSSLGLSLGSNSTVTASTRSSVATTSGKAPPNLPPGVPPLLPNPYIMAPGLLHAYPPQVYGYDDLQMLQTRFPLDYYSIPFPTPTTPLTGRDGSLASNPYSGDLTKFGRGDASSPAPATTLAQPQQNQTQTHHTTQQTFLNPALPPGYSYTSLPYYTGVPGLPSTFQYGPAVFPVAPTSSKQHGVNVSVNASATPFQQPSGYGSHGYNTGVSVTSSNTGVPDISGSVYSKTQQSFEKQGFHSGTPAASFNLPSALGSGGPINPATAAAYPPAPFMHILTPHQQPHSQILHHHLQQDGQTGSGQRSQTSSIPQKPQTNKSAYNSYSWGAN
3xMBT/D355N UNC Heavy [2]: 2.82 log base 2 | 3xMBT/D355N UNC Light [2]: 1.83 log base 2

Relative to UNC0638 UNC Heavy [1]: 0.49 log base 2 | Relative to UNC0638 UNC Light [1]: −0.29 log base 2 | Relative to UNC0638 Average [1]: 0.10 log base 2
B3: UBTF (protein, UniProt P17480 1-764, looked up)
Nucleolar transcription …: MNGEADCPTDLEMAAPKGQDRWSQEDMLTLLECMKNNLPSNDSSKFKTTESHMDWEKVAFKDFSGDMCKLKWVEISNEVRKFRTLTELILDAQEHVKNPYKGKKLKKHPDFPKKPLTPYFRFFMEKRAKYAKLHPEMSNLDLTKILSKKYKELPEKKKMKYIQDFQREKQEFERNLARFREDHPDLIQNAKKSDIPEKPKTPQQLWYTHEKKVYLKVRPDATTKEVKDSLGKQWSQLSDKKRLKWIHKALEQRKEYEEIMRDYIQKHPELNISEEGITKSTLTKAERQLKDKFDGRPTKPPPNSYSLYCAELMANMKDVPSTERMVLCSQQWKLLSQKEKDAYHKKCDQKKKDYEVELLRFLESLPEEEQQRVLGEEKMLNINKKQATSPASKKPAQEGGKGGSEKPKRPVSAMFIFSEEKRRQLQEERPELSESELTRLLARMWNDLSEKKKAKYKAREAALKAQSERKPGGEREERGKLPESPKRAEEIWQQSVIGDYLARFKNDRVKALKAMEMTWNNMEKKEKLMWIKKAAEDQKRYERELSEMRAPPAATNSSKKMKFQGEPKKPPMNGYQKFSQELLSNGELNHLPLKERMVEIGSRWQRISQSQKEHYKKLAEEQQKQYKVHLDLWVKSLSPQDRAAYKEYISNKRKSMTKLRGPNPKSSRTTLQSKSESEEDDEEDEDDEDEDEEEEDDENGDSSEDGGDSSESSSEDESEDGDENEEDDEDEDDDEDDDEDEDNESEGSSSSSSSSGDSSDSDSN
3xMBT/D355N UNC Heavy [2]: 2.47 log base 2 | 3xMBT/D355N UNC Light [2]: 1.93 log base 2
